Test results published in US20240352111A1 (Regeneron, published 2024).

T1: hArtemin-MMH (human)
T1 construct: also called hARTN.mmh; hARTN (A108-G220).mmh
T1 chain: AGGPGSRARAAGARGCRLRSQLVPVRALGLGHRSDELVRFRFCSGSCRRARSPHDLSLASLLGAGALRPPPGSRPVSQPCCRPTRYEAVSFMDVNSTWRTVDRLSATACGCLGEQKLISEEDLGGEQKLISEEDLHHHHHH

T2: MfArtemin-MMH (cynomolgous monkey (Macaca fascicularis))
T2 construct: also called mfARTN.mmh; mfARTN (A108-G22).mmh
T2 chain: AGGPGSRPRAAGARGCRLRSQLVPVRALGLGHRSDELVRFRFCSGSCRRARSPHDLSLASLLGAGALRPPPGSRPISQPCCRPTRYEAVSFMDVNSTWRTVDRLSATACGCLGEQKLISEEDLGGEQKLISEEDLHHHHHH

T3: mArtemin-MMH (mouse)
T3 construct: also called msArtemin-MMH; msARTN.mmh
T3 chain: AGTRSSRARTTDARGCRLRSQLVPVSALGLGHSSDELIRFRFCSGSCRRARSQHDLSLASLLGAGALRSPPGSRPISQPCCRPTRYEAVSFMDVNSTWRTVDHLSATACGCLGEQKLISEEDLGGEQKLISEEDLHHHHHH


Columns and labels:
[1] = target: T1, hArtemin-MMH; assay: BLI (Octet HTX), mAb captured on AHC tips, artemin at 15 nM, 25 C
Description: (§1) The entire experiment was performed at 25° C. in 10 mM HEPES, 150 mM NaCl, 3 mM EDTA, 0.02% NaN3 and 0.05% v/v Surfactant Tween-20, 1 mg/mL BSA, pH7.4 (HBS-EBT) buffer with the plate shaking at a speed of 1000 rpm. Different Artemin mAbs were first captured onto anti-human antibody (AHC) coated Octet biosensor tips (Fortebio Inc, #18-5064) by submerging the biosensor tips for 40 seconds in wells containing 2 μg/mL of Artemin mAb. […] All the Artemin and Artemin mAb samples were prepared in HBS-EBT buffer. The real-time binding response was monitored during the entire course of the experiment and the binding response at the end of every step was recorded.

[2] = target: T2, MfArtemin-MMH; assay: as above
Description: as §1

[3] = target: T3, mArtemin-MMH; assay: as above
Description: as §1

[4] = target: T1, hArtemin-MMH; assay: BLI (Octet HTX), mAb captured on AHC tips, artemin at 30 nM, 25 C
Description: as §1

[5] = target: T2, MfArtemin-MMH; assay: as above
Description: as §1

[6] = target: T3, mArtemin-MMH; assay: as above
Description: as §1

[7] = target: T2, MfArtemin-MMH; assay: SPR Biacore T200, MfArtemin-MMH captured by anti-myc mAb, mAb injected, 25 C
Description: The equilibrium dissociation constant (KD) for Artemin binding to each of Artemin monoclonal antibodies (mAbs) H4H33331P, H4H33335P, H4H33336P, and H4H33349P was determined using a real-time surface plasmon resonance Biacore T200 biosensor. All binding studies were performed in 10 mM HEPES, 150 mM NaCl, 3 mM EDTA, and 0.05% v/v Surfactant Tween-20, pH 7.4 (HBS-ET) running buffer at 25° C. The Biacore CM4 sensor chip surface was first derivatized by amine coupling with anti-myc mAb to capture hArtemin-MMH, MfArtemin-MMH, or mArtemin-MMH. Different concentrations of Artemin mAbs (60-2.2 nM, 3-fold serial dilution) prepared in […] running buffer were injected over the Artemin-captured surfaces for 3 min at a flow rate of 50 μL/min and their dissociation in HBS-ET running buffer was monitored for 5 minutes. At the end of each cycle, the Artemin-captured surfaces were regenerated using a 6 sec injection of 20 mM phosphoric acid.
The association rate (kₐ) and dissociation rate (kd) were determined by fitting the real-time binding sensorgrams to a 1:1 binding model with mass transport limitation using Scrubber 2.0c curve-fitting software. Binding dissociation equilibrium constant (KD) and dissociative half-life (t½) were calculated from the kinetic rates as: KD (M)=kd/kₐ, and t_{1/2} (min)=[In2/(60*kd)].

[8] = target: T3, mArtemin-MMH; assay: blocking ELISA, antibody blocks 150 pM msARTN.mmh binding to plate-coated hGFRa3.hFc
Description: (§2) Experiments were carried out using the following procedures. Plates were coated with hGFRa3.hFc at 2 μg/ml in PBS on a 96-well microtiter plate at 4° C. overnight for all three assays. […] In other microtiter plates, a constant amount of either 75 pM hARTN.mmh, 400 pM mfARTN.mmh, or 150 pM msARTN.mmh were separately bound with anti-ARTN antibodies and an irrelevant IgG4 antibody control at a serial dilution series from 0.0017 nM to 100 nM in PBS+0.5% BSA. After a one-hour incubation, the mixture solutions were transferred to microtiter plates coated with hGFRa3.hFc. After one hour of incubation at RT, the wells were washed with PBST, and plate-bound ARTN was detected with an anti-penta-His antibody conjugated with horseradish peroxidase (HRP) (Qiagen). The plates were then developed using TMB substrate solution (BD Biosciences, #555214) according to manufacturer's recommendation and absorbance at 450 nm was measured on a Victor X5 plate reader.
(§3) Binding data were analyzed using a sigmoidal dose-response model within Prism™ software (GraphPad). […] If the calculated IC50 value was below the LLOA, less than LLOA was reported. Percent blocking at 100 nM antibody was calculated based on the background-corrected binding signal observed at the highest antibody concentration tested using the formula listed below and reported for all tested antibodies: […]

[9] = target: T2, MfArtemin-MMH; assay: blocking ELISA, antibody blocks 400 pM mfARTN.mmh binding to plate-coated hGFRa3.hFc; * below lower limit of assay (1.00E-10 M)
Description: as §2, §3

[10] = target: T3, mArtemin-MMH; assay: blocking ELISA, antibody blocks 150 pM msARTN.mmh binding to plate-coated hGFRa3.hFc; * below lower limit of assay (3.75E-11 M)
Description: as §2, §3

| Binder | Artemin Binding Response (nm) [1] [nm] | Artemin Binding Response (nm) [2] [nm] | Artemin Binding Response (nm) [3] [nm] | Artemin Binding Response (nm) [4] [nm] | Artemin Binding Response (nm) [5] [nm] | Artemin Binding Response (nm) [6] [nm] | 60 nM Artemin mAb Bound (RU) [7] [RU] | Kd [7] [nM] | koff [7] [s⁻¹] | kon [7] [M⁻¹ s⁻¹] | t½ [7] [h] | % Blocking with 100 nM Ab [8] [%] | IC50 [8] [nM] | IC50 [9] [nM] | IC50 [10] [nM] |
| --- | --- | --- | --- | --- | --- | --- | --- | --- | --- | --- | --- | --- | --- | --- | --- |
| H4H33336P (antibody, human IgG4 S228P, kappa, V domains shown, Fully human antibody; also called Artemin mAb; anti-ARTN antibody) VH: QVQLVESGGGVVQPGRSLRLSCVASGFILSHYGMHWVRQAPGKGLEWVAVIWFDGTNKYYADSVKGRFTVSRDNSKNTLYMQMNSLRAEDTAVYYCARDPPPARRGNYNGMDVWGQGTTVTVSS VL: DIQMTQSPSSLSASVGDRVTITCRASQDIRNDLGWYQQKPGKAPKRLIFGASSLQSGVPLRFSGSGSGTEFTLTINNLQPEDFATFYCLQDNSYPWTFGQGTKVEIKR | 0.09 | 0.03 | 0.01 | 0.12 | 0.06 | 0.03 | 11 | 0.111 | 2.3e-05 | 207000 | 8.37 | 81 | 0.41 | 0.075 |  |
| H4H33331P (antibody, human IgG4 S228P, kappa, V domains shown, Fully human antibody (human variable and constant domains) from a VELOCIMMUNE mouse; also called Artemin mAb; anti-ARTN antibody) VH: EVQLVESGGDLVQPGGSLKLSCAASGFTFSGSAMHWVRQASGKGLEWVGRIRNKVHRYATEYGASVKGRFTISRDDSKNTAYLQMNSLKIEDTAVYYCVVVVPGSIEAFDIWGQGTMVTVSS VL: DIQMTQSPSSLSASVGDRVTITCRASQSISTYLNWYQQKPGKAPNLLIYAASTLESGVPSRFSGSGSGTDFTLTISSLQPEDFEIYYCQQSYNIPWTFGQGTKVEIKR | 0.11 | 0.03 | 0.08 | 0.11 | 0.09 | 0.1 | 5 | 1.51 | 0.000199 | 131000 | 0.967 | 83 |  |  | < 0.0375 |
| H4H33349P (antibody, human IgG4 S228P, kappa, V domains shown, Fully human antibody; also called Artemin mAb; anti-ARTN antibody) VH: QVQLVESGGGVVQPGRSLRLSCEASGFTFSDYDLHWVRQAPGKGLEWVAFISNDGSNEYYPKSVKGRFSISRDNSKNTLYLQMNSLRAEDTAVYHCTKERDYYYDSSGSLDYWGQGTLVTVSS VL: DIQMTQSPSSLSASVGDRVTITCRASQTINNYLNWYQQKPGKAPKLLIYTTSGLQSGVPSRFSGRGSGTDFTLAISSLQPEDFATYYCQQSYHSPFTFGPGTKVDIKR | 0.11 | 0.09 | 0.11 | 0.11 | 0.12 | 0.11 | 14 | 0.21 | 9.6e-05 | 457000 | 2 | 88 |  | 0.0302 | 0.00765 |
